Reference: publication PMC7659713 (The Journal of Cell Biology, 2020)

Biological target: the molecule itself
Experiment: native gel or EMSA

B1: FLAG-Pex14p(156–376)SD (domain or fragment, rat, UniProt Q642G4 156-376, looked up)
chain: SGSVAQTVTQVQTTLASVQELLRQQQQKVQELAHELAAAKATTSTNWILESQNINELKSEINSLKGLLLNRRQFPPDPSAPKIPSWQIPVKSPSPSSPAAVNHHSSSDISPVSNESPSSSPGKDGHSPEGSTATYRLLGPQEEGEGVVDVKGQVRMEVQGEEEKREDEEGEEDEDDDVSHVDEEDVLGVQREDRRGGDGQINEQVEKLRRPEGASNESERD
fold formation of homo-oligomer against WT or SA mutant: ~1.5 fold
